Experimental data taken from CN114456267A.

Target: T1, 重组人CD73蛋白 (human) (UniProt P21589)
T1 sequence (looked up): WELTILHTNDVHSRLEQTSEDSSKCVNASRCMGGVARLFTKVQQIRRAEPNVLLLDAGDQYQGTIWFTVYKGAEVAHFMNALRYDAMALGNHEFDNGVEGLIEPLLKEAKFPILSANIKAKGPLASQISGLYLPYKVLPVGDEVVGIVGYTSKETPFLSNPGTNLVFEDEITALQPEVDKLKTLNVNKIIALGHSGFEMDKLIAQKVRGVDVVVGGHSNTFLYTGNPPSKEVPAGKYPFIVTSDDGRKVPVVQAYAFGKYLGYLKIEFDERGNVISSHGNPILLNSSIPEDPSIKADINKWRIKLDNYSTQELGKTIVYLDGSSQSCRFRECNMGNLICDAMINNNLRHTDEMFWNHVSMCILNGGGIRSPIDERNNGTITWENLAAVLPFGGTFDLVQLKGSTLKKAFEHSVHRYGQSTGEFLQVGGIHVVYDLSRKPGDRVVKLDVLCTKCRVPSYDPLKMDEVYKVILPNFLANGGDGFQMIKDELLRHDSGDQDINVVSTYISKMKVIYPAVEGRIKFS
Experiment: ELISA, plate coated with 1 μg/mL recombinant human CD73, anti-human IgG-HRP detection

B1: 抗CD73人源化单克隆抗体5A4 (antibody, part only; not given: Light chain variable region, part only)
VH: SICFEGKPDMNQRDKEDHMRVFMNSWDDWYDVKLWHCIDFERAHRPQHYPIMAQVQLVQSGAEVKKPGASVKVSCKASGYSFTDYNMYWVRQAPGQGLEWMGYIDPYNGDASYAQKFQGRVTMTRDTSTSTVYMELSSLRSEDTAVYYCAKTDYWGQGTTLTVSSCLAKLPCGSHTWVWWQEMIQNAPWCVQPTHDHWAPAGWNHGCCILAHAENIQGAQWFAY
亲和力 (affinity): 8.3e-13 mol/L
